Laboratory results reported in the supplement of paper PMC7877785.
± gives the uncertainty stated by the source.

Assay: self-splicing fitness, log relative to wild type (ln ratio); higher = more splicing; Tetrahymena group I intron in knt gene, E. coli kanamycin selection, DiMSum; sequences stand for … in CUCUCU…GGAGGGAAAAGUUAUCAGGCAUGCACCUGGUAGCUAGUCUUUAAACCAAUAGAUUGCAUCGGUUUAAAAGGCAAGACCGUCAAAUUGCGGGAAAGGGGUCAACAGCCGUUCAGUACCAAGUCUCAGGGGAAACUUUGAGAUGGCCUUGCAAAGGGUAUGGUAAUAAGCUGACGGACAUGGUCCUAACCACGCAGCCAAGUCCUAAGUCAACAGAUCUUCUGUUGAUAUGGAUGCAGUUCACAGACUAAAUGUCGGUCGGGGAAGAUGUAUUCUUCUCAUAAGAUAUAGUCGGACCUCUCCUUAAUGGGAGCUAGCGGAUGAAGUGAUGCAACACUGGAGCCGCUGGGAACUAAUUUGUAUGCGAAAGUAUAUUGAUUAGUUUUGGAGUACUCGUGGUCG
Outline: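 The eight P1ex-region nucleotides of an intron in the knt kanamycin-resistance gene on pET-22b(+) were all randomised and the library put into E. coli BL21(DE3). Six replicate transformations were grown overnight at 37°C or 30°C on LB agar with or without 25 μg/mL kanamycin, together with 100 μg/mL carbenicillin, 50 μM IPTG and 0.2% rhamnose. Colonies were pooled and amplicon-sequenced on an Illumina HiSeq 2500. Fitness from DiMSum is the error-weighted combination of wild-type-normalised replicate fold changes, kanamycin over none.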

Sequence	self-splicing fitness (ln) (30 °C)	self-splicing fitness (ln) (37 °C)
GAACAGCAAUAUUACGUGCA	-1.09 ± 0.065	0.0769 ± 0.089
GAACAGCAAUAUUACGUGCG	-0.551 ± 0.065	-0.41 ± 0.074
GAACAGCAAUAUUACGUGGA	-2.32 ± 0.1	-1.95 ± 0.094
GAACAGCAAUAUUACGUGGG	-3.42 ± 0.11	-1.9 ± 0.091
GAACAGCAAUAUUACGUGUU	-3.97 ± 0.17	-2.61 ± 0.16
GAAGAGCAAUAUUACGAACU	-1.43 ± 0.15	-0.479 ± 0.17
GAAGAGCAAUAUUACGAAGA	-2.62 ± 0.26	-2.48 ± 0.24
GAAGAGCAAUAUUACGACGU	-0.922 ± 0.16	-0.536 ± 0.18
GAAGAGCAAUAUUACGAGCA	–	-1.33 ± 0.33
GAAGAGCAAUAUUACGAUCA	-2.36 ± 0.21	-1.01 ± 0.19
GAAGAGCAAUAUUACGCAUA	-3.1 ± 0.19	-2.62 ± 0.22
GAAGAGCAAUAUUACGCCUU	-2.52 ± 0.37	-1.55 ± 0.33
GAAGAGCAAUAUUACGCGCC	-3.56 ± 0.47	-1.43 ± 0.26
GAAGAGCAAUAUUACGGAAA	-2.81 ± 0.14	-2.93 ± 0.22
GAAGAGCAAUAUUACGGCUG	-2.1 ± 0.16	-1.22 ± 0.18
GAAGAGCAAUAUUACGGGCU	-3.17 ± 0.17	-3.07 ± 0.28
GAAGAGCAAUAUUACGGGUG	-3.28 ± 0.15	-2.01 ± 0.17
GAAGAGCAAUAUUACGGUAU	-3.7 ± 0.23	-2.46 ± 0.31
GAAGAGCAAUAUUACGGUCU	-2.52 ± 0.26	-0.469 ± 0.24
GAAGAGCAAUAUUACGUAUU	-3.86 ± 0.28	-1.04 ± 0.13
GAAGAGCAAUAUUACGUCCG	-3.48 ± 0.39	–
GAAGAGCAAUAUUACGUCUG	-2.34 ± 0.14	-1.76 ± 0.16
GAAUAGCAAUAUUACGACUC	-0.601 ± 0.13	-1.34 ± 0.18
GAAUAGCAAUAUUACGACUG	0.089 ± 0.15	-1.43 ± 0.17

Sequence	self-splicing fitness (ln) (30 °C)	self-splicing fitness (ln) (37 °C)
GAAUAGCAAUAUUACGACUU	0.269 ± 0.073	0.548 ± 0.092
GAAUAGCAAUAUUACGAUUA	-0.73 ± 0.093	0.156 ± 0.11
GAAUAGCAAUAUUACGCAGU	-2.57 ± 0.15	-0.857 ± 0.12
GAAUAGCAAUAUUACGCCCU	-0.167 ± 0.19	0.00214 ± 0.21
GAAUAGCAAUAUUACGCCUG	-0.487 ± 0.14	-0.504 ± 0.16
GAAUAGCAAUAUUACGCGGC	-1.42 ± 0.19	-2.38 ± 0.3
GAAUAGCAAUAUUACGCGGG	–	-0.0263 ± 0.25
GAAUAGCAAUAUUACGCUUG	-0.781 ± 0.11	-0.818 ± 0.14
GAAUAGCAAUAUUACGGCGG	-2.65 ± 0.18	-0.799 ± 0.13
GAAUAGCAAUAUUACGGUUG	-1.27 ± 0.092	-0.561 ± 0.13
GAAUAGCAAUAUUACGUAAG	-2.32 ± 0.14	-0.886 ± 0.18
GAAUAGCAAUAUUACGUACA	-1.7 ± 0.14	-0.774 ± 0.2
GAAUAGCAAUAUUACGUCCG	-1.39 ± 0.15	-1.33 ± 0.22
GAAUAGCAAUAUUACGUGCG	-1.2 ± 0.074	-0.181 ± 0.094
GAAUAGCAAUAUUACGUGCU	-2.04 ± 0.14	-0.626 ± 0.12
GAAUAGCAAUAUUACGUGGA	-3.38 ± 0.25	-1.17 ± 0.15
GAAUAGCAAUAUUACGUGGU	-3.01 ± 0.15	-2.74 ± 0.24
GAAUAGCAAUAUUACGUGUC	-3.72 ± 0.27	-2.58 ± 0.14
GAAUAGCAAUAUUACGUUAG	-3.39 ± 0.2	-1.94 ± 0.18
GAAUAGCAAUAUUACGUUUU	-3.38 ± 0.16	-0.859 ± 0.11
GACAAGCAAUAUUACGAAAU	-2.47 ± 0.14	-0.766 ± 0.14
GACAAGCAAUAUUACGAACG	-1.55 ± 0.13	-0.997 ± 0.22
GACAAGCAAUAUUACGAAUG	-2.42 ± 0.1	-0.875 ± 0.098
GACAAGCAAUAUUACGAGCC	-1.08 ± 0.18	-0.366 ± 0.15

Sequence	self-splicing fitness (ln) (30 °C)	self-splicing fitness (ln) (37 °C)
GACAAGCAAUAUUACGAGCG	-1 ± 0.074	-0.88 ± 0.088
GACAAGCAAUAUUACGAUUG	-1.77 ± 0.078	-1.54 ± 0.14
GACAAGCAAUAUUACGCCCA	-0.451 ± 0.086	-0.609 ± 0.13
GACAAGCAAUAUUACGCCCU	-0.581 ± 0.14	0.33 ± 0.15
GACAAGCAAUAUUACGCCGC	-3.31 ± 0.4	-2.97 ± 0.43
GACAAGCAAUAUUACGCUGG	-2.84 ± 0.14	-1.97 ± 0.17
GACAAGCAAUAUUACGGAAC	-1.94 ± 0.1	-1.69 ± 0.17
GACAAGCAAUAUUACGGAGG	-4.57 ± 0.31	-2.08 ± 0.19
GACAAGCAAUAUUACGGCCA	-0.973 ± 0.11	-0.192 ± 0.15
GACAAGCAAUAUUACGGGCC	-1.81 ± 0.18	-1.96 ± 0.17
GACAAGCAAUAUUACGGUGG	-2.01 ± 0.066	-1.88 ± 0.092
GACAAGCAAUAUUACGUAAA	-1.75 ± 0.069	-1.09 ± 0.091
GACAAGCAAUAUUACGUAAG	-2.11 ± 0.12	-1.36 ± 0.14
GACAAGCAAUAUUACGUACG	-1.82 ± 0.077	-0.508 ± 0.091
GACAAGCAAUAUUACGUAUC	-3.31 ± 0.15	-0.876 ± 0.14
GACAAGCAAUAUUACGUUAU	-3.17 ± 0.11	-1.5 ± 0.095
GACCAGCAAUAUUACGAAUU	-0.37 ± 0.073	-0.374 ± 0.1
GACCAGCAAUAUUACGACCU	0.00245 ± 0.074	-0.389 ± 0.073
GACCAGCAAUAUUACGACGA	-0.236 ± 0.091	0.15 ± 0.1
GACCAGCAAUAUUACGAUCG	-0.875 ± 0.091	-0.444 ± 0.1
GACCAGCAAUAUUACGAUUC	-0.023 ± 0.075	-0.543 ± 0.08
GACCAGCAAUAUUACGAUUG	-2.1 ± 0.073	-1.08 ± 0.084
GACCAGCAAUAUUACGCCAG	-3.98 ± 0.28	-0.652 ± 0.19
GACCAGCAAUAUUACGCCCG	-1.72 ± 0.12	-0.754 ± 0.13

Sequence	self-splicing fitness (ln) (30 °C)	self-splicing fitness (ln) (37 °C)
GACCAGCAAUAUUACGCGGA	-1.06 ± 0.1	-0.442 ± 0.1
GACCAGCAAUAUUACGCUUC	-2.01 ± 0.1	-1.66 ± 0.14
GACCAGCAAUAUUACGGACC	-2.21 ± 0.17	-2.38 ± 0.33
GACCAGCAAUAUUACGGAUA	-0.244 ± 0.058	0.0596 ± 0.075
GACCAGCAAUAUUACGGCUU	-0.0255 ± 0.055	-0.293 ± 0.07
GACCAGCAAUAUUACGGGAA	-0.695 ± 0.06	-0.941 ± 0.067
GACCAGCAAUAUUACGGUAC	-2.05 ± 0.09	-1.75 ± 0.092
GACCAGCAAUAUUACGGUGU	-0.661 ± 0.055	-0.365 ± 0.084
GACCAGCAAUAUUACGUCAU	-1.66 ± 0.058	-0.747 ± 0.062
GACCAGCAAUAUUACGUCCC	-0.756 ± 0.12	-0.522 ± 0.13
GACCAGCAAUAUUACGUCUG	-2.93 ± 0.23	-1.74 ± 0.21
GACCAGCAAUAUUACGUGAG	-1.33 ± 0.055	-1 ± 0.064
GACCAGCAAUAUUACGUGGC	-4.25 ± 0.21	-2.88 ± 0.16
GACCAGCAAUAUUACGUUAC	-1.65 ± 0.052	-0.38 ± 0.067
GACCAGCAAUAUUACGUUUA	-0.372 ± 0.051	-0.0736 ± 0.062
GACCAGCAAUAUUACGUUUC	-0.69 ± 0.065	-0.568 ± 0.083
GACGAGCAAUAUUACGAAAG	-3.59 ± 0.43	-1.53 ± 0.37
GACGAGCAAUAUUACGAACU	-1.83 ± 0.11	-0.278 ± 0.11
GACGAGCAAUAUUACGACUC	-1.36 ± 0.15	0.797 ± 0.18
GACGAGCAAUAUUACGACUG	-2.47 ± 0.21	-0.443 ± 0.25
GACGAGCAAUAUUACGCAAC	-2.11 ± 0.29	-2.31 ± 0.42
GACGAGCAAUAUUACGCCCA	-2.06 ± 0.3	-2.17 ± 0.28
GACGAGCAAUAUUACGCGAA	-2.91 ± 0.31	-1.16 ± 0.21
GACGAGCAAUAUUACGCGCA	-1.71 ± 0.23	-1.3 ± 0.21
